Assay results published in PMC6238616.

Key:
[1] = target: synaptotagmin binding cytoplasmic RNA interacting protein (SYNCRIP), wild type, LUMIER fusion; test: LUMIER; conditions: read off a plot
[2] = target: SMN1, wild type, LUMIER fusion (UniProt Q16637); test: LUMIER; conditions: parent: est. 120000; read off a plot
Sequence of SMN1, wild type, LUMIER fusion (UniProt Q16637) (Q16637 whole entry, the tested form may be a part): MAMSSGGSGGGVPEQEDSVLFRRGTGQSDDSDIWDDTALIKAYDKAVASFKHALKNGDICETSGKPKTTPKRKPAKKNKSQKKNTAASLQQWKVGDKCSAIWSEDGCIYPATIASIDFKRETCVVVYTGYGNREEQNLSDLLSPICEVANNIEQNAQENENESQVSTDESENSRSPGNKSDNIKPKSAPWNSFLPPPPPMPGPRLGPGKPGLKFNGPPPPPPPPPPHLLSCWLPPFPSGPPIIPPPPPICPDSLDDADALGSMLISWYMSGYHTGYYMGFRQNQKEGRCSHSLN

Sequence of SMN1, wild type, LUMIER fusion (from UniProt Q16637) SMN1 DD MT (Q16637 whole entry, change not shown, the tested form may be a part): as the sequence (Q16637 whole entry, the tested form may be a part) above

## PHF1, wild type, LUMIER fusion (from UniProt O43189) Y47A
[1]; parent: est. 100000
  response: 32000 RU

## SMN1, wild type, LUMIER fusion (from UniProt Q16637) SMN1 DD MT
[2]
  response: 37000 RU
[1]; parent: est. 180000
  response: 110000 RU

## SMN1, wild type, LUMIER fusion (from UniProt Q16637) Y127L
[1]; parent: est. 180000
  response: 91000 RU
